From PMC7367873, “Dissecting the sequence determinants for dephosphorylation by the catalytic subunits of phosphatases PP1 and PP2A” (Nature Communications, 2020)

Molecular target: T1, PP2Ac (Homo sapiens, UniProt P67775)
T1 construct: purchased Cayman Chemical 10011237
Test: Phosphopeptide library dephosphorylation followed by mass spectrometry (PLDMS), PP2Ac
Assay type: biochemical
Conditions: all libraries, 25 nM PP2Ac, 100 µM library, 4 min, 25 °C, pH 7.5; library distribution 60% Ser to 40% Thr
Source text: In order to determine phosphatase specificity on the phosphopeptide level, we developed an in vitro phosphopeptide library dephosphorylation followed by mass spectrometry approach (PLDMS, Fig. 1a; see the methods for details). In this approach, phosphopeptide libraries would be treated with PP1, PP2A, or left untreated, purified, and analyzed by LC-MS/MS measurements. In the first step, design, synthesis, and validation of phosphopeptide libraries were required. The phosphopeptide libraries were designed to yield an even distribution of amino acids in the different randomized positions and to give high coupling efficiency during synthesis, thus reducing the number of by-products. […]
The individual libraries were incubated with recombinant PP1c or PP2Ac (Supplementary Fig. 1a) and the reaction was stopped by shifting the pH from 7.5 to 3 when 30–50% of the library was dephosphorylated, depending on phosphatase activity (see the methods for details, Supplementary Fig. 1b). Peptides were then separated from the recombinant protein by size-exclusion chromatography (SEC) (Supplementary Fig. 1c) and analyzed by LC-MS/MS (Fig. 1a). […]
For LC-MS analysis, the treated/ctrl peptide libraries were purified by SEC. […] A 0.1 M ammonium acetate buffer (pH 5) was used throughout the column equilibration and purification and the elution profile was recorded at 280 nm. […]

T1 sequence (P67775 1-308 limits assumed): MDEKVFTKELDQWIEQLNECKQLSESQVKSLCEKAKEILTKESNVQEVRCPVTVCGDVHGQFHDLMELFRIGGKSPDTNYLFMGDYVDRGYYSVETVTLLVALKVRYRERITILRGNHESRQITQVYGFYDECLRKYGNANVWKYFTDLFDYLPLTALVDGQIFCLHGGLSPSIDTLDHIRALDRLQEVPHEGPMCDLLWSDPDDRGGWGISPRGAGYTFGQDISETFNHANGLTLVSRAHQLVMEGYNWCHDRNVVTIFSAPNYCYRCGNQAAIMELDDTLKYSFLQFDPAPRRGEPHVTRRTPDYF

Substance: PP2Ac: His-tagged recombinant PPP2CA ΔL309, purchased from Cayman Chemical
- pThr share of all sites dephosphorylated by PP2Ac: 83%
